No end group written: not given here.
Biological target: 12A8
Experiment: SPR

TWGYPFHDGDYLNDE (also: biotin, position not given here, GSAGGS spacer, position not given here) [biotinylated hTM4SF4 (T126-E140) peptide containing a GSAGGS spacer]
Kd: 8.34 nM

From article PMC12680531 (2026)
